Assay results published in publication PMC5187433, “A bromodomain–DNA interaction facilitates acetylation-dependent bivalent nucleosome recognition by the BET protein BRDT” (Nature Communications, 2016).

Experiments:
Assay in all cases: ITC
[1] = target: N-BRDT(1) (Homo sapiens) (UniProt Q58F21); settings: EMSA: 20 mM Tris pH 7.5, 100 mM NaCl, 5 mM DTT, 0.5 mM EDTA, 4 C, ITC: 20 mM Tris pH 8.0, 150 mM NaCl, 1 mM EDTA, 1 mM TCEP, 20 C, NMR at 34 C
[2] = target: N-BRDT(1) 3KS K37S;K41S;K45S (Homo sapiens) (UniProt Q58F21); settings: histone H4K5acK8ac (H4 A15C ligation); EMSA: 20 mM Tris pH 7.5, 100 mM NaCl, 5 mM DTT, 0.5 mM EDTA, 4 C; ITC: 20 mM Tris pH 8.0, 150 mM NaCl, 1 mM EDTA, 1 mM TCEP, 20 C; NMR at 34 C
[3] = target: N-BRDT(1) K41S K41S (Homo sapiens) (UniProt Q58F21); settings: histone H4K5acK8ac (H4 A15C ligation); EMSA: 20 mM Tris pH 7.5, 100 mM NaCl, 5 mM DTT, 0.5 mM EDTA, 4 C; ITC: 20 mM Tris pH 8.0, 150 mM NaCl, 1 mM EDTA, 1 mM TCEP, 20 C; NMR at 34 C
[4] = target: N-BRDT(1) 3KE K37E;K41E;K45E (Homo sapiens) (UniProt Q58F21); settings: histone H4K5acK8ac (H4 A15C ligation); EMSA: 20 mM Tris pH 7.5, 100 mM NaCl, 5 mM DTT, 0.5 mM EDTA, 4 C; ITC: 20 mM Tris pH 8.0, 150 mM NaCl, 1 mM EDTA, 1 mM TCEP, 20 C; NMR at 34 C

Row | Sequence | Kd ([1]; H4K5acK8ac tail ligated to H3 core, WT H2A, H2B, H4) [µM] | Kd [2] [µM] | Kd ([1]; histone H4K5acK8ac (H4 A15C ligation)) [µM] | Kd [3] [µM] | binding signal (fold reduced affinity vs WT) [4]
1 | TCGGGGGCCGCCCTGGAGAATCCCGGTGCCGAGGCCGCTCAATTGGTCGTAGACAGCTCTAGCACCGCTTAAACGCACGTACGCGCTGTCCCCCGCGTTTTAACCGCCAAGGGGATTACTCCCTAGTCTCCAGGCACGTGTCAGATATATACATCCTGTGCATGTAC / CCGAGTACATGCACAGGATGTATATATCTGACACGTGCCTGGAGACTAGGGAGTAATCCCCTTGGCGGTTAAAACGCGGGGGACAGCGCGTACGTGCGTTTAAGCGGTGCTAGAGCTGTCTACGACCAATTGAGCGGCCTCGGCACCGGGATTCTCCAGGGCGGCCC [chimeric H3-H4K5acK8ac nucleosome (167 bp Widom)] | 5 |  |  |  | 
2 | TCGGGGGCCGCCCTGGAGAATCCCGGTGCCGAGGCCGCTCAATTGGTCGTAGACAGCTCTAGCACCGCTTAAACGCACGTACGCGCTGTCCCCCGCGTTTTAACCGCCAAGGGGATTACTCCCTAGTCTCCAGGCACGTGTCAGATATATACATCCTGTGCATGTAC / CCGAGTACATGCACAGGATGTATATATCTGACACGTGCCTGGAGACTAGGGAGTAATCCCCTTGGCGGTTAAAACGCGGGGGACAGCGCGTACGTGCGTTTAAGCGGTGCTAGAGCTGTCTACGACCAATTGAGCGGCCTCGGCACCGGGATTCTCCAGGGCGGCCC [H4K5acK8ac nucleosome (167 bp Widom)] |  | 9 | 2 | 7 | 5
